B1: HB31 wild type (WT) Fab (Fab, V domains shown)
VH: EVQLLESGGGLVQPGGSLRLSCTVSGFTSSNYDMSWVRQAPGKGLEWVSGISGTGRDTYYADSVKGRFTISRDNSKNTLSLQMNSLRADDTAVYFCARDRPVLRYFDWQPYGLDVWGKGTTVTVSS
VL: QSALTQPPSASGSPGQSVTISCTGTSSDVGGYNYVSWYQQYPSKAPKLMIYEVSKRPSGVPDRFSGSKSGNTASLTVSGLQAEDEADYYCNSYAGSNLYVFGTGTKVTVL
notes: also called HB31 WT Fab; HB31 Fab; source: Expi293F, transiently co-transfected, purified (CaptureSelect CH1-XL)
B2: HB31 wild type (WT) IgG (antibody, V domains shown)
VH: B1 VH
VL: B1 VL
notes: copies: 2 + 2

Molecular target: H1 stem (#4900), HA stem construct derived from the A/Brisbane/59/2007 (H1N1) HA (Designed HA stem #4900 from influenza A …, stabilised)
Assay: BLI
Details: both partners purified

| Binder | Kd |
| --- | --- |
| B1 | 4.3 nM |
| B2 | 2.7 nM |
